Measured values: article PMC10440987, “SLG2 specifically regulates grain width through WOX11 ‐mediated cell expansion control in rice”

Key:
WOX11-MBP [1] = target: T1, WOX11-MBP (Oryza sativa (rice; cultivar of the …, UniProt Q0D3I7 1-262); assay: EMSA; LightShift Chemiluminescent EMSA Kit (Thermo 20148), manufacturer's instructions; buffer, salt, pH and temperature not stated; details: protein: recombinant; tags: MBP; label: 5' biotin; blunt
T1 sequence: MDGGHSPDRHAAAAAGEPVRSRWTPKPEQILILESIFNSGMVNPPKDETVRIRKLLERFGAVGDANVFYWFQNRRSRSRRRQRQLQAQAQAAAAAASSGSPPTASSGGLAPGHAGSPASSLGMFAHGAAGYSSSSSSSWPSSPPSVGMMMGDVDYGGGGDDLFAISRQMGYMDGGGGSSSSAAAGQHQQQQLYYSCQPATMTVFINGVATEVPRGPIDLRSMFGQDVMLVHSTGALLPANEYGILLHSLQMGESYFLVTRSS

WOX11-MBP [2] = target: T1, WOX11-MBP; assay: competition EMSA; unlabelled competitor against biotin hot probe N1; LightShift Chemiluminescent EMSA Kit (Thermo 20148), manufacturer's instructions; buffer, salt, pH and temperature not stated; details: protein: recombinant; tags: MBP; blunt

| Binder | binding result (WOX11-MBP [1]) | binding result (WOX11-MBP [2]) |
| --- | --- | --- |
| pOsEXPB7 hot probe (dsDNA) DNA 1: AGGGATCGATCGAAATTAATGGCGGGCAGGAGCAGGA DNA 2: TCCTGCTCCTGCCCGCCATTAATTTCGATCGATCCCT | binds |  |
| pOsEXPB7 cold probe (dsDNA) DNA 1: AGGGATCGATCGAAATTAATGGCGGGCAGGAGCAGGA DNA 2: TCCTGCTCCTGCCCGCCATTAATTTCGATCGATCCCT |  | binds |
| pOsEXPB7 mutant probe (dsDNA) DNA 1: AGGGATCGATCGAAATCCATGGCGGGCAGGAGCAGGA DNA 2: TCCTGCTCCTGCCCGCCATGGATTTCGATCGATCCCT | no binding |  |
